Data reported in patent US20240325555A1.

Columns and labels:
rat LIV-1 (rat) = molecular target: T1, rat LIV-1 (rat) (UniProt Q4V887); test: FACS, HEK293/Rat_LIV-1 cells
T1 sequence (looked up): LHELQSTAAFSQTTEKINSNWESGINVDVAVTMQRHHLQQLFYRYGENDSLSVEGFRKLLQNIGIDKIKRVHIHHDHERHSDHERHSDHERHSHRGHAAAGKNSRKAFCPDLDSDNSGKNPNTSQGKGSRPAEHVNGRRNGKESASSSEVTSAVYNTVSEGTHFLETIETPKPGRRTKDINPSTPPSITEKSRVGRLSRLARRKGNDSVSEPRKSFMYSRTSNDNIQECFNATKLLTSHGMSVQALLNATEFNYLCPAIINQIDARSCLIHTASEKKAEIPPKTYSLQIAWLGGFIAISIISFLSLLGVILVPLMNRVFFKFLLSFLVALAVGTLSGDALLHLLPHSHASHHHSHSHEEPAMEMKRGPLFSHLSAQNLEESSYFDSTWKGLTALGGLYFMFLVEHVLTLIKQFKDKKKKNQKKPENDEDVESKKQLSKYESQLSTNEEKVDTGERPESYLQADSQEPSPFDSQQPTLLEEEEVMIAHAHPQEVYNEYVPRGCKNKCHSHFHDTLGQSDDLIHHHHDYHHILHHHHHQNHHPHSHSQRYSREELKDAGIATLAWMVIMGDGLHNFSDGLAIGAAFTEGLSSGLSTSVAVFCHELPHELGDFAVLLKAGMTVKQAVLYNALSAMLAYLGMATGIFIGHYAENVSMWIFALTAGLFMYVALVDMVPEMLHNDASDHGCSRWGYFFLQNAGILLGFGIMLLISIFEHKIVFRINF

mouse LIV-1 (mouse) = molecular target: T2, mouse LIV-1 (mouse) (UniProt Q8C145); test: FACS, HEK293/Mouse_LIV-1 cells
T2 sequence (looked up): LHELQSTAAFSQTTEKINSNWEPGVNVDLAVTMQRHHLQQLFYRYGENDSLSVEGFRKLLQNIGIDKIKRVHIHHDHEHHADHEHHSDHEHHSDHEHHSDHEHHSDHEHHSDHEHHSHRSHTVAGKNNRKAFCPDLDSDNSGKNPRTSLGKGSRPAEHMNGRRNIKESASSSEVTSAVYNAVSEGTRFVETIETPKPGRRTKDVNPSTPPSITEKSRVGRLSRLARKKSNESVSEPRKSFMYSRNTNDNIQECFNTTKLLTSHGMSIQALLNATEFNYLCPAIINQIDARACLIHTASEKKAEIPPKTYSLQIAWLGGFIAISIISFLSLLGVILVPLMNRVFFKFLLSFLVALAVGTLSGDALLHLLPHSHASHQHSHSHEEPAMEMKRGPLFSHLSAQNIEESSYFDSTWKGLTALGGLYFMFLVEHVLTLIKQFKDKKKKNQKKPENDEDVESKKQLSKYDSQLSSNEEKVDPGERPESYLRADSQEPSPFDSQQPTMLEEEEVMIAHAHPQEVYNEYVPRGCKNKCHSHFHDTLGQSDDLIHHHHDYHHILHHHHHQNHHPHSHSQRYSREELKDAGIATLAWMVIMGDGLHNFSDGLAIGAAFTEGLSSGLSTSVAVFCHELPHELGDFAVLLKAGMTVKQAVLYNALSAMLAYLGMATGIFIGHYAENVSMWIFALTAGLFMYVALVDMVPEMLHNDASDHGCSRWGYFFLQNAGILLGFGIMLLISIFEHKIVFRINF

B1: 5D6B10 (antibody, V domains shown)
VH: QVQLKQSGPGLVQPSQSLSITCTVSGFSLTTYGIHWVRQSPGKGLEWLGVIWTGGTTDYNAAFISRLSISKDNSKSQVFFKMNSLQANDTAIYYCARGPSSYWGQGTLVTVSA
VL: DIVMTQSQKFMSTSVGDRVSVTCKASQNVDTNVVWYQQKPGQSPKALIHSASYRYSGVPDRFTGSGSGTDFTLTISNVQSEDLAEYFCQQYNNYPWTFGGGTKLEIK
Top (MFI) (rat LIV-1 (rat)): 150 MFI
Top (MFI) (mouse LIV-1 (mouse)): 121 MFI
